From PMC6863750 (Nature cell biology, 2018)

Assays:
[1] = molecular target: purified recombinant Rac1 Q61L (analyte in SPR) (UniProt P63000 1-192, Q61L); experiment: SPR
[2] = molecular target: His-Rac1 Q61L (immobilised in SPR) (UniProt P63000 1-192, Q61L); experiment: SPR

Kd [1] [µM] | Kd [2] [µM] | Binder
27 |  | GST-CYRI-B RBD (domain or fragment) ESEKEIYNQVNVVLKDAEGILEDLQSYRGAGHEIREAIQHPADEKLQEKAWGAVVPLVGKLKKFYEFSQRLEAALRGLLGALTSTPYSPTQHLEREQALAKQFAEILHFTLRFDELKMTNPAIQNDFSYYRRTLSRMRINNVPAEGENEVNNELANRMSLFYAEATPMLKTLSDATTKFVSENKNLPIENTTDCLSTMASVCRVMLE
 | 22 | CYRI-B RBD (analyte in SPR) (domain or fragment) ESEKEIYNQVNVVLKDAEGILEDLQSYRGAGHEIREAIQHPADEKLQEKAWGAVVPLVGKLKKFYEFSQRLEAALRGLLGALTSTPYSPTQHLEREQALAKQFAEILHFTLRFDELKMTNPAIQNDFSYYRRTLSRMRINNVPAEGENEVNNELANRMSLFYAEATPMLKTLSDATTKFVSENKNLPIENTTDCLSTMASVCRVMLE
